In patent US20260098059A1 (ENDOMET BIOSCIENCES, published 2026):
Values joined by “and” are separate entries in the source; they are usually repeats but may differ in a detail not shown here. Equal values may be shown once. [ ]: non-standard residue; d: D form. The star is where a group is joined. NMeW = CN[C@@H](Cc1c[nH]c2ccccc12)C(=O)O; Stearoyl = CCCCCCCCCCCCCCCCCC(=O)*; αMeV = CC(C)[C@](C)(N)C(=O)O; αMeS = C[C@](N)(CO)C(=O)O

T1: β-catenin (UniProt P35222 134-665, limits assumed, biotinylated in the SPR and plate assays)
T1 sequence (looked up): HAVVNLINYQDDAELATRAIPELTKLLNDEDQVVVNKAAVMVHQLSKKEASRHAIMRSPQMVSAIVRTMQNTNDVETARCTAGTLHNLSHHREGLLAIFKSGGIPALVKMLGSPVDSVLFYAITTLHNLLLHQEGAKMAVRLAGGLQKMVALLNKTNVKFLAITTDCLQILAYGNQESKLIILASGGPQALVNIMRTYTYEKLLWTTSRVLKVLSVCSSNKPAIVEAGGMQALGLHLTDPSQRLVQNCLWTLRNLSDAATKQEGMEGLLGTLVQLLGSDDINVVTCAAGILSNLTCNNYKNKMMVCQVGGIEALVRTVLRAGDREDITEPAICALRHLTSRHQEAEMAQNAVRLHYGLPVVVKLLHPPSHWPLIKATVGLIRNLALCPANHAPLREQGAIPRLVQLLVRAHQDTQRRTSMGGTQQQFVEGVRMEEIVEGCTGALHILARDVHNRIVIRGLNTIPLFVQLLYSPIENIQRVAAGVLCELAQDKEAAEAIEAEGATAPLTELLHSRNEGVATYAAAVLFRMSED

T2: β-catenin in mouse endometriosis lesions (mouse, UniProt Q02248 2-781)
T2 construct: Endogenous protein in fixed tissue sections; also called cytoplasmic β-catenin
T2 sequence (looked up): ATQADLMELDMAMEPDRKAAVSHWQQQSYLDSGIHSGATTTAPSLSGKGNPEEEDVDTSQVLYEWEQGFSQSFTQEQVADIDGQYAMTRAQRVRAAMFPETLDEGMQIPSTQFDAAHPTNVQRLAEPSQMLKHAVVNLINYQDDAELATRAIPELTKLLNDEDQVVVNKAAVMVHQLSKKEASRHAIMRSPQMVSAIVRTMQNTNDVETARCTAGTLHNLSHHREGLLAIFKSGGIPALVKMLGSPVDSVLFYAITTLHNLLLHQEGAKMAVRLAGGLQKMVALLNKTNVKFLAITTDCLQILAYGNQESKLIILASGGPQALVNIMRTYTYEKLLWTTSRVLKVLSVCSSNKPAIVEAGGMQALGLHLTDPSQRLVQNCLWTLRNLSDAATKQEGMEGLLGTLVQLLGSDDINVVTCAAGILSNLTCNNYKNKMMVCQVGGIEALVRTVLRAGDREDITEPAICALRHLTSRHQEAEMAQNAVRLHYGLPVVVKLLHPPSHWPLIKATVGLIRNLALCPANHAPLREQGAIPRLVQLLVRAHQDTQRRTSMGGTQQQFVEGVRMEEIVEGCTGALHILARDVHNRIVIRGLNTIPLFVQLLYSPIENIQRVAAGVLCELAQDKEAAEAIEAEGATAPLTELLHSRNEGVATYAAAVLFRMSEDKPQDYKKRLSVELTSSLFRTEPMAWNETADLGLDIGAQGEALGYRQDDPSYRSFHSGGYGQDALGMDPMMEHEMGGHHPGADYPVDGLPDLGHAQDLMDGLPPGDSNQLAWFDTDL

B1: SEQ ID NO: 18 (peptide)
peptide: KAESILDEHVQRVWG
HELM: PEPTIDE1{K.[meA].E.S.I.L.D.E.H.V.Q.R.V.W.G}$PEPTIDE1,PEPTIDE1,1:R3-15:R2$$$V2.0
SMILES: CC[C@H](C)[C@@H]1NC(=O)[C@H](CO)NC(=O)[C@H](CCC(=O)O)NC(=O)[C@H](C)N(C)C(=O)[C@@H](N)CCCCNC(=O)CNC(=O)[C@H](Cc2c[nH]c3ccccc23)NC(=O)[C@H](C(C)C)NC(=O)[C@H](CCCNC(=N)N)NC(=O)[C@H](CCC(N)=O)NC(=O)[C@H](C(C)C)NC(=O)[C@H](Cc2c[nH]cn2)NC(=O)[C@H](CCC(=O)O)NC(=O)[C@H](CC(=O)O)NC(=O)[C@H](CC(C)C)NC1=O
B2: SEQ ID NO: 19 (peptide)
peptide: KAQSILDEHVQRVWG
HELM: PEPTIDE1{K.[meA].Q.S.I.L.D.E.H.V.Q.R.V.W.G}$PEPTIDE1,PEPTIDE1,1:R3-15:R2$$$V2.0
SMILES: CC[C@H](C)[C@@H]1NC(=O)[C@H](CO)NC(=O)[C@H](CCC(N)=O)NC(=O)[C@H](C)N(C)C(=O)[C@@H](N)CCCCNC(=O)CNC(=O)[C@H](Cc2c[nH]c3ccccc23)NC(=O)[C@H](C(C)C)NC(=O)[C@H](CCCNC(=N)N)NC(=O)[C@H](CCC(N)=O)NC(=O)[C@H](C(C)C)NC(=O)[C@H](Cc2c[nH]cn2)NC(=O)[C@H](CCC(=O)O)NC(=O)[C@H](CC(=O)O)NC(=O)[C@H](CC(C)C)NC1=O
B3: SEQ ID NO: 16 (peptide)
peptide: MSRMWFLISFWAG
HELM: PEPTIDE1{M.S.R.M.W.F.L.I.S.F.W.[meA].G}$$$$V2.0
SMILES: CC[C@H](C)[C@H](NC(=O)[C@H](CC(C)C)NC(=O)[C@H](Cc1ccccc1)NC(=O)[C@H](Cc1c[nH]c2ccccc12)NC(=O)[C@H](CCSC)NC(=O)[C@H](CCCNC(=N)N)NC(=O)[C@H](CO)NC(=O)[C@@H](N)CCSC)C(=O)N[C@@H](CO)C(=O)N[C@@H](Cc1ccccc1)C(=O)N[C@@H](Cc1c[nH]c2ccccc12)C(=O)N(C)[C@@H](C)C(=O)NCC(=O)O
B4: SEQ ID NO: 20 (peptide)
peptide: KWAQSILNQHVQRVWG
HELM: PEPTIDE1{K.W.[meA].Q.S.I.L.N.Q.H.V.Q.R.V.W.G}$PEPTIDE1,PEPTIDE1,1:R3-16:R2$$$V2.0
SMILES: CC[C@H](C)[C@@H]1NC(=O)[C@H](CO)NC(=O)[C@H](CCC(N)=O)NC(=O)[C@H](C)N(C)C(=O)[C@H](Cc2c[nH]c3ccccc23)NC(=O)[C@@H](N)CCCCNC(=O)CNC(=O)[C@H](Cc2c[nH]c3ccccc23)NC(=O)[C@H](C(C)C)NC(=O)[C@H](CCCNC(=N)N)NC(=O)[C@H](CCC(N)=O)NC(=O)[C@H](C(C)C)NC(=O)[C@H](Cc2c[nH]cn2)NC(=O)[C@H](CCC(N)=O)NC(=O)[C@H](CC(N)=O)NC(=O)[C@H](CC(C)C)NC1=O
B5: SEQ ID NO: 270 (Ac-Bcl9(347-381)-AβAβK-CONH2) (peptide)
peptide: NPDGLSQEQLEHRERSLQTLRDIQRMLFPDEKEFTAAK
HELM: PEPTIDE1{[ac].N.P.D.G.L.S.Q.E.Q.L.E.H.R.E.R.S.L.Q.T.L.R.D.I.Q.R.M.L.F.P.D.E.K.E.F.T.[bAla].[bAla].K.[am]}$$$$V2.0
SMILES: CC[C@H](C)[C@H](NC(=O)[C@H](CC(=O)O)NC(=O)[C@H](CCCNC(=N)N)NC(=O)[C@H](CC(C)C)NC(=O)[C@@H](NC(=O)[C@H](CCC(N)=O)NC(=O)[C@H](CC(C)C)NC(=O)[C@H](CO)NC(=O)[C@H](CCCNC(=N)N)NC(=O)[C@H](CCC(=O)O)NC(=O)[C@H](CCCNC(=N)N)NC(=O)[C@H](Cc1c[nH]cn1)NC(=O)[C@H](CCC(=O)O)NC(=O)[C@H](CC(C)C)NC(=O)[C@H](CCC(N)=O)NC(=O)[C@H](CCC(=O)O)NC(=O)[C@H](CCC(N)=O)NC(=O)[C@H](CO)NC(=O)[C@H](CC(C)C)NC(=O)CNC(=O)[C@H](CC(=O)O)NC(=O)[C@@H]1CCCN1C(=O)[C@H](CC(N)=O)NC(C)=O)[C@@H](C)O)C(=O)N[C@@H](CCC(N)=O)C(=O)N[C@@H](CCCNC(=N)N)C(=O)N[C@@H](CCSC)C(=O)N[C@@H](CC(C)C)C(=O)N[C@@H](Cc1ccccc1)C(=O)N1CCC[C@H]1C(=O)N[C@@H](CC(=O)O)C(=O)N[C@@H](CCC(=O)O)C(=O)N[C@@H](CCCCN)C(=O)N[C@@H](CCC(=O)O)C(=O)N[C@@H](Cc1ccccc1)C(=O)N[C@H](C(=O)NCCC(=O)NCCC(=O)N[C@@H](CCCCN)C(N)=O)[C@@H](C)O
notes: Bcl9 residues 347-381, acetylated, with beta-Ala-beta-Ala-K added, amidated

What follows are binders tested against T1, β-catenin (assay: cell-based or functional assay).

| Binder | Wnt Reporter EC50 | Proliferation IC50, Endo cells [µM] | Proliferation IC50, Wnt dependent cells [µM] |
| --- | --- | --- | --- |
| KMIRMWFLISFWG (cyclo-H2N-K(Aoc*)MIRM-NmeW-FLISFWG*) [SEQ ID NO: 21] | > 30 µM |  |  |
| B1 | > 30 µM |  |  |
| B2 | > 30 µM |  |  |
| H-MSRMWFLISFWMG-OH [SEQ ID NO: 14] | ≤ 7.5 µM |  |  |
| B3 | > 15 µM and ≤ 22.5 µM |  |  |
| B4 | > 30 µM |  |  |
| Stearoyl-W[NMeW]E[αMeS]ILDEH[αMeV]QRVW-OH (393 used) [Peptide 4 (SEQ ID NO: 393/500)] | ≤ 7.5 µM | 5 | 1.7 |

What follows are binders tested against T2, β-catenin in mouse endometriosis lesions (assay: immunofluorescence co-localisation in mouse lesions).
Protocol: Endometriosis was established in a mouse model of disease. Mice were allowed to establish endometriosis for 3 weeks. […] To assess the localization of the peptides and β-catenin, lesions from the endometriosis mouse model were assessed. On the last day of treatment, in order to visualize the peptide localization to the lesion(s), mice were dosed with a biotinylated tagged peptide therapeutic or control. Mice were euthanized, lesions were removed, and fixed in formalin for histology and immunohistochemistry. […] Immunohistochemical negative controls were performed on lesion sections from all treatment groups using IgG non-specific antibodies (Rabbit-IgG, AbCam 1:100).

| Binder | binding result |
| --- | --- |
| Stearoyl-W[NMeW]E[αMeS]ILDEH[αMeV]QRVW-OH (393 used) [Peptide 4 (SEQ ID NO: 393/500)] | binds |

Each binder was assayed against T1, β-catenin (assay: competitive FP).
Outline: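 Competitive fluorescence polarization with inhibitor peptide serially diluted from 10 nM to 30 uM; polarization read at 470 nm excitation, 520 nm emission. Experiments performed three times.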

| Binder | Kd [µM] |
| --- | --- |
| KMIRMWFLISFWG (cyclo-H2N-K(Aoc*)MIRM-NmeW-FLISFWG*) [SEQ ID NO: 21] | > 30 |
| B1 | > 30 |
| B2 | > 30 |
| B5 | > 30 |
| H-MSRMWFLISFWMG-OH [SEQ ID NO: 14] | > 30 |
| B3 | > 30 |
| B4 | > 30 |

The binders below were run against T1, β-catenin (assay: SPR (Biacore); SPR (Biacore), direct binding).
Protocol: Biotinylated protein (beta catenin) was immobilized on a high-affinity streptavidin (SA) sensor chip (GE). Peptide at increasing concentrations was flowed over in HBS EP+ buffer at room temperature according to manufacturer's instructions. The maximum binding capacity of the surface (response at saturation) was calculated using the Biacore® system (GE) instructions and binding was measured at each concentration as a data point. The binding levels were determined over a range of analyte concentrations of at least from 20% to 80% saturation of the surface. On rates, off rates, and KD were calculated using Biacore® Insight Evaluation Software software (GE).

| Binder | Kd [µM] |
| --- | --- |
| KMIRMWFLISFWG (cyclo-H2N-K(Aoc*)MIRM-NmeW-FLISFWG*) [SEQ ID NO: 21] | 0.337 |
| B1 | 0.076 |
| B2 | 0.059 |
| B5 | 0.546 |
| H-MSRMWFLISFWMG-OH [SEQ ID NO: 14] | 0.25 |
| B3 | 0.12 |
| B4 | 0.048 |
